The target of the assay is T1, recombinant HDM2 17-125 (human, UniProt Q00987 17-125).
T1 construct: range 17-125
The assay is described as follows: fluorescence polarization competition: unlabeled peptide titrated against FITC-WT p53 14-29 (25 nM) bound to HDM2 17-125. The protocol: FIG. 12 Competition by fluorescence polarization. Fluoresceinated, wild type p53₁₄₋₂₉ (25 nM) was incubated with recombinant HDM2₁₇₋₁₂₅. Unlabeled SAH-p53s were titrated into the mixture, and displacement of the labeled ligand was measured by fluorescence polarization.
The ability of various SAH-p53s to compete with wild-type p53₁₄₋₂₉ for binding to HDM2₁₇₋₁₂₅ was assessed as follows. Fluoresceinated, wild type p53₁₄₋₂₉ (25 nM) was incubated with recombinant HDM2₁₇₋₁₂₅. Unlabeled SAH-p53s were titrated into the mixture, and displacement of the labeled ligand was measured by fluorescence polarization.
In general terms: Polarisation of emitted light reports the rotation of a fluorescent probe.

Bridge positions count the residues as written; N and C are the ends. Square brackets hold non-standard residues; d marks the D form. R8 = C=CCCCCCC[C@@](C)(N)C(=O)O; S5 = C=CCCC[C@](C)(N)C(=O)O

B1: SAH-p53-4 (peptide)
peptide: Ac-LSQETF[R8]DLWKLL[S5]EN-NH2
modifications: staple 7-14
notes: the FITC-labeled form is m4; also called unlabeled SAH-p53-4; Ac-SAH-p53-4
B1: the binding result is on record as “binds”.

For the origin of these results see patent US20170081379A1 (Dana-Farber, published 2017).
